In publication PMC3366460:

Target: HsUbcH5b(C85S)~Ub oxyester-linked conjugate (human | mammalian) (UniProt P62837)
Experiment: pull-down

stoichiometry N: 4
Substance: HsUbcH5b(C85S)~Ub oxyester-linked conjugate (from UniProt P62837 1-147; P0CG48 1-76) (complex)
